Reference: the MegaScale stability set (Tsuboyama et al. 2023)

B1: HEEH_KT_rd6_3632 (parent)
chain: DAEELIELVERALKEGREIILLGVRITSEEAGKWFIEWIRRFL

Variants of: B1
Assay: folding stability dG (cDNA display proteolysis); higher = more stable
Conditions: PBS, room temperature

Variant	folding stability dG [kcal/mol]
DAEELIELVERALKEGREIILLGVRITSEEAGKEFIEWIRRFL [W34E]	3.41
DAEELIELVERALKEGREIILLGVRITSEEAGKCFIEWIRRFL [W34C]	3.78
DAEELIELVERALKEGREIILLGVRITSEEAGKMFIEWIRRFL [W34M]	3.61
DAEELIELVERALKEGREIILLGVRITSEEAGKPFIEWIRRFL [W34P]	2.66
DAEELIELVERALKEGREIILLGVRITSEEAGKTFIEWIRRFL [W34T]	3.45
DAEELIELVERALKEGREIILLGVRITSEEAGKQFIEWIRRFL [W34Q]	3.64
DAEELIELVERALKEGREIILLGVRITSEEAGKVFIEWIRRFL [W34V]	3.35
DAEELIELVERALKEGREIILLGVRITSEEAGKNFIEWIRRFL [W34N]	3.48
DAEELIELVERALKEGREIILLGVRITSEEAGKYFIEWIRRFL [W34Y]	3.43
DAEELIELVERALKEGREIILLGVRITSEEAGKAFIEWIRRFL [W34A]	4.01
DAEELIELVERALKEGREIILLGVRITSEEAGKGFIEWIRRFL [W34G]	3.11
DAEELIELVERALKEGREIILLGVRITSEEAGKKFIEWIRRFL [W34K]	3.81
DAEELIELVERALKEGREIILLGVRITSEEAGKLFIEWIRRFL [W34L]	3.72
DAEELIELVERALKEGREIILLGVRITSEEAGKDFIEWIRRFL [W34D]	3.39
DAEELIELVERALKEGREIILLGVRITSEEAGKFFIEWIRRFL [W34F]	3.42
DAEELIELVERALKEGREIILLGVRITSEEAGKRFIEWIRRFL [W34R]	3.98
DAEELIELVERALKEGREIILLGVRITSEEAGKHFIEWIRRFL [W34H]	3.54
DAEELIELVERALKEGREIILLGVRITSEEAGKIFIEWIRRFL [W34I]	3.6
DAEELIELVERALKEGREIILLGVRITSEEAGKSFIEWIRRFL [W34S]	3.43
DAEELIELVERALKEGREIILLGVRITSEEAGKWFIEAIRRFL [W38A]	2.95
DAEELIELVERALKEGREIILLGVRITSEEAGKWFIESIRRFL [W38S]	2.71
DAEELIELVERALKEGREIILLGVRITSEEAGKWFIELIRRFL [W38L]	3.42
DAEELIELVERALKEGREIILLGVRITSEEAGKWFIEKIRRFL [W38K]	2.86
DAEELIELVERALKEGREIILLGVRITSEEAGKWFIECIRRFL [W38C]	3.94

Variant	folding stability dG [kcal/mol]
DAEELIELVERALKEGREIILLGVRITSEEAGKWFIEVIRRFL [W38V]	2.96
DAEELIELVERALKEGREIILLGVRITSEEAGKWFIEHIRRFL [W38H]	2.82
DAEELIELVERALKEGREIILLGVRITSEEAGKWFIEYIRRFL [W38Y]	3.37
DAEELIELVERALKEGREIILLGVRITSEEAGKWFIEFIRRFL [W38F]	3.65
DAEELIELVERALKEGREIILLGVRITSEEAGKWFIETIRRFL [W38T]	2.79
DAEELIELVERALKEGREIILLGVRITSEEAGKWFIEDIRRFL [W38D]	2
DAEELIELVERALKEGREIILLGVRITSEEAGKWFIEGIRRFL [W38G]	2.34
DAEELIELVERALKEGREIILLGVRITSEEAGKWFIEMIRRFL [W38M]	3.32
DAEELIELVERALKEGREIILLGVRITSEEAGKWFIEPIRRFL [W38P]	2.26
DAEELIELVERALKEGREIILLGVRITSEEAGKWFIEEIRRFL [W38E]	2.62
DAEELIELVERALKEGREIILLGVRITSEEAGKWFIEIIRRFL [W38I]	3.2
DAEELIELVERALKEGREIILLGVRITSEEAGKWFIERIRRFL [W38R]	2.89
DAEELIELVERALKEGREIILLGVRITSEEAGKWFIENIRRFL [W38N]	2.8
DAEELIELVERALKEGREIILLGVRITSEEAGKWFIEQIRRFL [W38Q]	2.96
DAEELIELVERALKEGREIILLGVRITSEEAGIWFIEWIRRFL [K33I]	3.56
DAEELIELVERALKEGREIILLGVRITSEEAGWWFIEWIRRFL [K33W]	3.7
DAEELIELVERALKEGREIILLGVRITSEEAGEWFIEWIRRFL [K33E]	3.43
DAEELIELVERALKEGREIILLGVRITSEEAGGWFIEWIRRFL [K33G]	3.34
DAEELIELVERALKEGREIILLGVRITSEEAGSWFIEWIRRFL [K33S]	3.39
DAEELIELVERALKEGREIILLGVRITSEEAGMWFIEWIRRFL [K33M]	3.57
DAEELIELVERALKEGREIILLGVRITSEEAGTWFIEWIRRFL [K33T]	3.56
DAEELIELVERALKEGREIILLGVRITSEEAGVWFIEWIRRFL [K33V]	3.55
DAEELIELVERALKEGREIILLGVRITSEEAGHWFIEWIRRFL [K33H]	3.51
DAEELIELVERALKEGREIILLGVRITSEEAGLWFIEWIRRFL [K33L]	3.63

Variant	folding stability dG [kcal/mol]
DAEELIELVERALKEGREIILLGVRITSEEAGYWFIEWIRRFL [K33Y]	3.61
DAEELIELVERALKEGREIILLGVRITSEEAGRWFIEWIRRFL [K33R]	4.02
DAEELIELVERALKEGREIILLGVRITSEEAGNWFIEWIRRFL [K33N]	3.52
DAEELIELVERALKEGREIILLGVRITSEEAGQWFIEWIRRFL [K33Q]	3.62
DAEELIELVERALKEGREIILLGVRITSEEAGPWFIEWIRRFL [K33P]	3.2
DAEELIELVERALKEGREIILLGVRITSEEAGFWFIEWIRRFL [K33F]	3.48
DAEELIELVERALKEGREIILLGVRITSEEAGKWFISWIRRFL [E37S]	3.52
DAEELIELVERALKEGREIILLGVRITSEEAGKWFIVWIRRFL [E37V]	3.79
DAEELIELVERALKEGREIILLGVRITSEEAGKWFIPWIRRFL [E37P]	2.92
DAEELIELVERALKEGREIILLGVRITSEEAGKWFIGWIRRFL [E37G]	3.42
DAEELIELVERALKEGREIILLGVRITSEEAGKWFIRWIRRFL [E37R]	3.62
DAEELIELVERALKEGREIILLGVRITSEEAGKWFIFWIRRFL [E37F]	3.7
DAEELIELVERALKEGREIILLGVRITSEEAGKWFIKWIRRFL [E37K]	3.66
DAEELIELVERALKEGREIILLGVRITSEEAGKWFINWIRRFL [E37N]	3.62
DAEELIELVERALKEGREIILLGVRITSEEAGKWFIYWIRRFL [E37Y]	3.92
DAEELIELVERALKEGREIILLGVRITSEEAGKWFIAWIRRFL [E37A]	3.81
DAEELIELVERALKEGREIILLGVRITSEEAGKWFILWIRRFL [E37L]	3.93
DAEELIELVERALKEGREIILLGVRITSEEAGKWFIQWIRRFL [E37Q]	3.67
DAEELIELVERALKEGREIILLGVRITSEEAGKWFIDWIRRFL [E37D]	3.57
DAEELIELVERALKEGREIILLGVRITSEEAGKWFITWIRRFL [E37T]	3.47
DAEELIELVERALKEGREIILLGVRITSEEAGKWFIWWIRRFL [E37W]	3.88
DAEELIELVERALKEGREIILLGVRITSEEAGKWFIMWIRRFL [E37M]	3.83
DAEELIELVERALKEGREIILLGVRITSEEAGKWFIIWIRRFL [E37I]	3.87
DAEELIELVERALKEGREIILLGVRITSEEAGKWFIHWIRRFL [E37H]	3.46

Variant	folding stability dG [kcal/mol]
DAEELIELVERALKEGREIILLGVRITSEEAGKWFREWIRRFL [I36R]	3.17
DAEELIELVERALKEGREIILLGVRITSEEAGKWFLEWIRRFL [I36L]	3.52
DAEELIELVERALKEGREIILLGVRITSEEAGKWFVEWIRRFL [I36V]	3.36
DAEELIELVERALKEGREIILLGVRITSEEAGKWFHEWIRRFL [I36H]	3.15
DAEELIELVERALKEGREIILLGVRITSEEAGKWFAEWIRRFL [I36A]	3.35
DAEELIELVERALKEGREIILLGVRITSEEAGKWFWEWIRRFL [I36W]	3.76
DAEELIELVERALKEGREIILLGVRITSEEAGKWFGEWIRRFL [I36G]	2.92
DAEELIELVERALKEGREIILLGVRITSEEAGKWFFEWIRRFL [I36F]	3.44
DAEELIELVERALKEGREIILLGVRITSEEAGKWFYEWIRRFL [I36Y]	3.46
DAEELIELVERALKEGREIILLGVRITSEEAGKWFMEWIRRFL [I36M]	3.37
DAEELIELVERALKEGREIILLGVRITSEEAGKWFTEWIRRFL [I36T]	3.09
DAEELIELVERALKEGREIILLGVRITSEEAGKWFEEWIRRFL [I36E]	2.97
DAEELIELVERALKEGREIILLGVRITSEEAGKWFSEWIRRFL [I36S]	3.02
DAEELIELVERALKEGREIILLGVRITSEEAGKWFPEWIRRFL [I36P]	2.59
DAEELIELVERALKEGREIILLGVRITSEEAGKWFNEWIRRFL [I36N]	2.93
DAEELIELVERALKEGREIILLGVRITSEEAGKWFDEWIRRFL [I36D]	3.04
DAEELIELVERALKEGREIILLGVRITSEEAGKWFQEWIRRFL [I36Q]	3.11
DAEELIELVERALKEGREIILLGVRITSEEAGKWFKEWIRRFL [I36K]	3.26
DAEELIELVERALKEGREIILLGVRITSEEAGKWKIEWIRRFL [F35K]	3.08
DAEELIELVERALKEGREIILLGVRITSEEAGKWIIEWIRRFL [F35I]	3.85
DAEELIELVERALKEGREIILLGVRITSEEAGKWVIEWIRRFL [F35V]	3.65
DAEELIELVERALKEGREIILLGVRITSEEAGKWSIEWIRRFL [F35S]	2.86
DAEELIELVERALKEGREIILLGVRITSEEAGKWMIEWIRRFL [F35M]	3.43
DAEELIELVERALKEGREIILLGVRITSEEAGKWLIEWIRRFL [F35L]	3.66

Variant	folding stability dG [kcal/mol]
DAEELIELVERALKEGREIILLGVRITSEEAGKWRIEWIRRFL [F35R]	2.98
DAEELIELVERALKEGREIILLGVRITSEEAGKWWIEWIRRFL [F35W]	3.44
DAEELIELVERALKEGREIILLGVRITSEEAGKWEIEWIRRFL [F35E]	2.63
DAEELIELVERALKEGREIILLGVRITSEEAGKWPIEWIRRFL [F35P]	2.34
DAEELIELVERALKEGREIILLGVRITSEEAGKWHIEWIRRFL [F35H]	2.85
DAEELIELVERALKEGREIILLGVRITSEEAGKWNIEWIRRFL [F35N]	2.53
DAEELIELVERALKEGREIILLGVRITSEEAGKWGIEWIRRFL [F35G]	2.63
DAEELIELVERALKEGREIILLGVRITSEEAGKWAIEWIRRFL [F35A]	3.03
DAEELIELVERALKEGREIILLGVRITSEEAGKWDIEWIRRFL [F35D]	2.6
DAEELIELVERALKEGREIILLGVRITSEEAGKWQIEWIRRFL [F35Q]	2.85
DAEELIELVERALKEGREIILLGVRITSEEAGKWTIEWIRRFL [F35T]	2.96
DAEELIELVERALKEGREIILLGVRITSEEAGKWYIEWIRRFL [F35Y]	3.25
DAEELIELVERALKEGREIILLGVRITSEEAGKWFIEWDRRFL [I39D]	2.51
DAEELIELVERALKEGREIILLGVRITSEEAGKWFIEWFRRFL [I39F]	3.46
DAEELIELVERALKEGREIILLGVRITSEEAGKWFIEWLRRFL [I39L]	4.03
DAEELIELVERALKEGREIILLGVRITSEEAGKWFIEWARRFL [I39A]	2.92
DAEELIELVERALKEGREIILLGVRITSEEAGKWFIEWERRFL [I39E]	2.69
DAEELIELVERALKEGREIILLGVRITSEEAGKWFIEWHRRFL [I39H]	2.73
DAEELIELVERALKEGREIILLGVRITSEEAGKWFIEWCRRFL [I39C]	3.49
DAEELIELVERALKEGREIILLGVRITSEEAGKWFIEWMRRFL [I39M]	3.58
DAEELIELVERALKEGREIILLGVRITSEEAGKWFIEWKRRFL [I39K]	2.56
DAEELIELVERALKEGREIILLGVRITSEEAGKWFIEWGRRFL [I39G]	2.66
